Test results from US20230293571A1, “POLYNUCLEOTIDE FOR CANCER TREATMENT, ENCODING 5'-NUCLEOTIDASE MODIFIED PROTEIN” (priority 2020, published 2023).

B1: SV4-DSPE (conjugate)
chain: MEEELQIIQPDLSVSVAAGESAILHCTITSLFPVGPIQWFRGAGPARVLIYNQRQGPFPRVTTVSETTKRENMDFSISISNITPADAGTYYCIKFRKGSPDTEFLSGAGTELSVRAKPS

Molecular target: recombinant CD47 protein (Homo sapiens, UniProt Q08722)
Test: SPR on CM5 chip conjugated with CD47
Assay type: binding
Conditions: CD47 250 RU
Method: Specifically, the recombinant CD47 protein was conjugated to the surface of the CM5 chip by a target SPR reaction of 250 RU through an EDC-NHS reaction to be used, and for HBS-P, the sensogram obtained through a process of association for 3 minutes and dissociation for 10 minutes at a flow rate of 30 μL/minutes was analyzed with the BiaEvaluation software using a 1:1 binding model and global fitting.

Chain of recombinant CD47 protein (Q08722 19-323): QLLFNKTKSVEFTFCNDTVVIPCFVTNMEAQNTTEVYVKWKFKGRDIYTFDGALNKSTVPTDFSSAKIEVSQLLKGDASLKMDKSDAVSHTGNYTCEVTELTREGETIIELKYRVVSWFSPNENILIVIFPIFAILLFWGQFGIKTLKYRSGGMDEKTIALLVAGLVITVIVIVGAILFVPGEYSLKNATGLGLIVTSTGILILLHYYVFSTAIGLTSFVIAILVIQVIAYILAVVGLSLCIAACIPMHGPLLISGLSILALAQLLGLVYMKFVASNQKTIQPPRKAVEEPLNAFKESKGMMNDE

Molecule	Kd [nM]	kd [s⁻¹]
Sirpα: pure Sirpα (SEQ ID NO: 25), water-soluble domain of the original CD47 ligand	290	–
B1	–	0.000256
